US20240392003A1 (NUMAB THERAPEUTICS, published 2024)
Like-named read-outs stand apart in the source and are kept apart here.

What was measured:
[1] = biological target: T1, human serum albumin (Sigma-Aldrich A3782) (human, UniProt P02768 25-609); assay: SPR; hSA immobilized, pH 5.5
T1 construct: also called hSA; HSA

[2] = biological target: T2, recombinant human CD3 epsilon extra-cellular domain protein (His-Tag, SinoBiological) (human, UniProt P07766 23-126); assay: SPR; hCD3ε immobilized, two-state fit (Ka1)
T2 construct: extracellular domain; Bought; also called hCD3ε; human CD3ε; not shown: His tag

[3] = biological target: T2, recombinant human CD3 epsilon …; assay: SPR; hCD3ε immobilized, two-state fit (kd1)
[4] = biological target: T3, human ROR1 (Peprotech 160-054) (human, UniProt Q01973 30-406); assay: SPR; MATCH4 captured, hROR1 analyte (Affinity)
T3 construct: Bought, used as analyte; also called hROR1; recombinant human ROR1 protein

[5] = biological target: T2, recombinant human CD3 epsilon …; assay: SPR; hCD3ε immobilized, two-state fit
[6] = biological target: T4, recombinant human ROR1 protein (Fc-Tag, Acro Biosystems RO1-H5250) (human, UniProt Q01973 30-406); assay: SPR; hROR1-Fc immobilized (Avidity)
T4 construct: Bought; also called hROR1; recombinant human ROR1 ECD; not shown: Fc tag

[7] = biological target: T4, recombinant human ROR1 protein (Fc-Tag, …); assay: SPR; hROR1-Fc immobilized
[8] = biological target: T5, human ROR1 expressed on cells (human, UniProt Q01973 30-937); assay: flow cytometry, MDA-MB-231 cells
T5 construct: whole, on cells; One molecule for cell-surface ROR1 on all cell lines; the cell line is named under assay; also called hROR1; plasma membrane human ROR1

[9] = biological target: T2, recombinant human CD3 epsilon …; assay: SPR; hCD3ε immobilized, two-state fit (ka1)
[10] = biological target: T2, recombinant human CD3 epsilon …; assay: SPR; hCD3ε immobilized, two-state fit (kd1); remark: listed apart in the source
[11] = biological target: T4, recombinant human ROR1 protein (Fc-Tag, …); assay: SPR; hROR1-Fc immobilized; remark: listed apart in the source
[12] = biological target: T5, human ROR1 expressed on cells; assay: flow cytometry, MDA-MB-231 cells, 1 mg/ml hSA
[13] = biological target: T2, recombinant human CD3 epsilon …; assay: SPR; hCD3ε immobilized, two-state fit; remark: listed apart in the source
[14] = biological target: T5, human ROR1 expressed on cells; assay: cell-based or functional assay

| Binder | Kd [7] [nM] | koff [7] [s⁻¹] | kon [7] [M⁻¹ s⁻¹] | EC50 [8] [nM] | Rel. maximum binding (MFIscFv/MFIPRO2213) [8] | kon [9] [M⁻¹ s⁻¹] | koff [10] [s⁻¹] | Kd [11] [nM] | koff [11] [s⁻¹] | kon [11] [M⁻¹ s⁻¹] | Kd [13] [nM] | ka2 [13] [s⁻¹] | kd2 [13] [s⁻¹] | also measured |
| --- | --- | --- | --- | --- | --- | --- | --- | --- | --- | --- | --- | --- | --- | --- |
| PRO2558 (bispecific antibody, Interdomain disulfide in the hSA domain (VH G51C / VL G141C, AHo numbering)., also called 19-04-A10-sc06 scDb-o/28-21-D09-sc04 scDb-i/56-22-A05-sc02 scFv; not shown: C-terminal 56-22-A05-sc02 scFv and the linker leading to it) AFELTQSPSSLSASVGDRVTITCQASESINSRLAWYQQKPGQPPKLLIYDASDLTSGVPSRFSGSGSGTDFTLTISSLQPEDFATYYCQGYGGSSTTTFGCGTKLTVLGGGGGSEVQLVESGGGLVQPGGSLRLSCAASGFSLSSYDMSWVRQAPGKGLAWIGASYASGPTYYASWAKGRFTISRDNSKNTVYLQMNSLRAEDTATYFCARGGWTGTSHSNIWGQGTLVTVSSGGGGSGGGGSGGGGSGGGGSDIQMTQSPSSLSASVGDRVTITCQSSQSVFSNNYLAWFQQKPGQSPKRLIYSASTLASGVPSRFSGSGSGTDFTLTISSLQPEDFATYYCLGSYACSSADCYVFGTGTKVTVLGGGGGSEVQLVESGGGLVQPGGSLRLSCAASGFSLSSYAMNWVRQAPGKCLEWIGHINAGDIAYYATWAKGRFTISRDNSKNTVYLQMNSLRAEDTAVYFCARGAGGFSTGPFKLWGQGTLVTVSS | – | – | – | – | – | – | – | – | – | – | – | – | – | Kd [1]: 4.4 nM; koff [1]: 0.002 s⁻¹; kon [1]: 460000 M⁻¹ s⁻¹ |
| PRO2669 (bispecific antibody, heterodimeric MATCH4, modified VH domains, variant of PRO2589; also called MATCH4 with 55-38-D07-sc02(RTQ) / 19-04-A10-sc02(RTQ) diS / 28-21-D09-sc04(RTQ) / 55-38-D07-sc02(RTQ)) chain 1: DVQMTQSPSSLSASVGDRVTITCRASENIYSGLAWYQQKPGKPPKLLIYRASTLASGVSSRFSGSGSGTDFTLTISSLQPEDFATYYCQGGYYSSSSTYIAFGTGTKVTVLGGGGGSGGGGSGGGGSGGGGSQSQVVESGGGRVQPGGSLRLSCAVSGFDLSSYAVSWVRQAPGKGLEWIGIIYPRANTYYASWAKGRFTISKDNSKNTVYLQMNSLRAEDTATYFCARDRYDSGAYLYTTYFNLWGQGTQVTVSSGGGGSGGGGSAFELTQSPSSLSASVGDRVTITCQASESINSRLAWYQQKPGQPPKLLIYDASDLTSGVPSRFSGSGSGTDFTLTISSLQPEDFATYYCQGYGGSSTTTFGCGTKLTVLGGGSGGSDIQMTQSPSSLSASVGDRVTITCQSSQSVFSNNYLAWFQQKPGQSPKRLIYSASTLASGVPSRFSGSGSGTDFTLTISSLQPEDFATYYCLGSYACSSADCYVFGTGTKVTVLG chain 2: DVQMTQSPSSLSASVGDRVTITCRASENIYSGLAWYQQKPGKPPKLLIYRASTLASGVSSRFSGSGSGTDFTLTISSLQPEDFATYYCQGGYYSSSSTYIAFGTGTKVTVLGGGGGSGGGGSGGGGSGGGGSQSQVVESGGGRVQPGGSLRLSCAVSGFDLSSYAVSWVRQAPGKGLEWIGIIYPRANTYYASWAKGRFTISKDNSKNTVYLQMNSLRAEDTATYFCARDRYDSGAYLYTTYFNLWGQGTQVTVSSGGGGSGGGGSEVQLVESGGGRVQPGGSLRLSCAASGFSLSSYDMSWVRQAPGKGLAWIGASYASGPTYYASWAKGRFTISRDNSKNTVYLQMNSLRAEDTATYFCARGGWTGTSHSNIWGQGTQVTVSSGGGSGGGSGGGSGEVQLVESGGGRVQPGGSLRLSCAASGFSLSSYAMNWVRQAPGKCLEWIGHINAGDIAYYATWAKGRFTISRDNSKNTVYLQMNSLRAEDTATYFCARGAGGFSTGPFKLWGQGTQVTVSS | – | – | – | – | – | – | – | – | – | – | – | – | – | kon [2]: 810000 M⁻¹ s⁻¹; koff [3]: 0.0047 s⁻¹; Kd [4]: ≤ 0.177 nM; koff [4]: < 1e-05 s⁻¹; kon [4]: 56600 M⁻¹ s⁻¹; Ka2 [5]: 0.0056 s⁻¹; Kd [5]: 2.7 nM; Kd2 [5]: 0.0047 s⁻¹; Kd [6]: 0.026 nM; koff [6]: 2.6e-05 s⁻¹; kon [6]: 1e+06 M⁻¹ s⁻¹ |
| PRO2292 (scFv, V domains shown, scFv, PRO2062 with VL-VH interdomain disulfide (AHo 141VL-51VH); also called 55-39-G02-sc05) VH: QSQLVESGGGLVQPGGSLRLSCAVSGLSLSRNAMSWVRQAPGKCLEWIGIILTSGSTYYASWAKGRFTISKDNSKNTVYLQMNSLRAEDTAVYFCVRGIASSSLKSFWGQGTLVTVSS VL: AQQLTQSPSSLSASVGDRVTITCQASQNVWNNNYLSWFQQKPGKPPKLLIVTASTLASGVSSRFSGSGSGTDFTLTISSLQPEDFATYYCAGGFSGEIRAFGCGTKVTVLG | 0.0906 | 0.000616 | 6.8e+06 | 0.27 | 1.18 | – | – | – | – | – | – | – | – | – |
| PRO2291 (scFv, V domains shown, scFv, PRO2060 with VL-VH interdomain disulfide (AHo 141VL-51VH); also called 55-38-D07-sc06) VH: QSQVVESGGGLVQPGGSLRLSCAVSGFDLSSYAVSWVRQAPGKCLEWIGIIYPRANTYYASWAKGRFTISKDNSKNTVYLQMNSLRAEDTAVYFCARDRYDSGAYLYTTYFNLWGQGTLVTVSS VL: DVQMTQSPSSLSASVGDRVTITCRASENIYSGLAWYQQKPGKPPKLLIYRASTLASGVSSRFSGSGSGTDFTLTISSLQPEDFATYYCQGGYYSSSSTYIAFGCGTKVTVLG | 1.12 | 0.000302 | 269000 | 2.74 | 1.18 | – | – | – | – | – | – | – | – | – |
| PRO2508 (bispecific antibody, trispecific anti-ROR1 x hSA x CD3 scMATCH3, single chain; also called 19-04-A10-sc06 scDb-o/28-21-D09-sc04 scDb-i/55-38-D07-sc06-scFv) AFELTQSPSSLSASVGDRVTITCQASESINSRLAWYQQKPGQPPKLLIYDASDLTSGVPSRFSGSGSGTDFTLTISSLQPEDFATYYCQGYGGSSTTTFGCGTKLTVLGGGGGSEVQLVESGGGLVQPGGSLRLSCAASGFSLSSYDMSWVRQAPGKGLAWIGASYASGPTYYASWAKGRFTISRDNSKNTVYLQMNSLRAEDTATYFCARGGWTGTSHSNIWGQGTLVTVSSGGGGSGGGGSGGGGSGGGGSDIQMTQSPSSLSASVGDRVTITCQSSQSVFSNNYLAWFQQKPGQSPKRLIYSASTLASGVPSRFSGSGSGTDFTLTISSLQPEDFATYYCLGSYACSSADCYVFGTGTKVTVLGGGGGSEVQLVESGGGLVQPGGSLRLSCAASGFSLSSYAMNWVRQAPGKCLEWIGHINAGDIAYYATWAKGRFTISRDNSKNTVYLQMNSLRAEDTAVYFCARGAGGFSTGPFKLWGQGTLVTVSSGGGGSGGGGSDVQMTQSPSSLSASVGDRVTITCRASENIYSGLAWYQQKPGKPPKLLIYRASTLASGVSSRFSGSGSGTDFTLTISSLQPEDFATYYCQGGYYSSSSTYIAFGCGTKVTVLGGGGGSGGGGSGGGGSGGGGSQSQVVESGGGLVQPGGSLRLSCAVSGFDLSSYAVSWVRQAPGKCLEWIGIIYPRANTYYASWAKGRFTISKDNSKNTVYLQMNSLRAEDTAVYFCARDRYDSGAYLYTTYFNLWGQGTLVTVSS | – | – | – | – | – | 380000 | 0.0062 | ≤ 0.13 | < 1e-05 | 76000 | 8.5 | 0.0068 | 0.0074 | EC50 [12]: 18.7 nM; Rel. maximum binding (MFIscMATCH3/MFIPRO2213) [12]: 3; EC50 (nM) Cytotoxicity (MDA-MB-231) [14]: 1.7 nM |
| PRO2667 (bispecific antibody, trispecific anti-ROR1 x hSA x CD3 scMATCH3, single chain, modified VH domains; also called 19-04-A10-sc06(RTQ) scDb-o/28-21-D09-sc04 (RTQ) scDb-i/55-38-D07-sc02(RTQ)-scFv) AFELTQSPSSLSASVGDRVTITCQASESINSRLAWYQQKPGQPPKLLIYDASDLTSGVPSRFSGSGSGTDFTLTISSLQPEDFATYYCQGYGGSSTTTFGCGTKLTVLGGGGGSEVQLVESGGGRVQPGGSLRLSCAASGFSLSSYDMSWVRQAPGKGLAWIGASYASGPTYYASWAKGRFTISRDNSKNTVYLQMNSLRAEDTATYFCARGGWTGTSHSNIWGQGTQVTVSSGGGGSGGGGSGGGGSGGGGSDIQMTQSPSSLSASVGDRVTITCQSSQSVFSNNYLAWFQQKPGQSPKRLIYSASTLASGVPSRFSGSGSGTDFTLTISSLQPEDFATYYCLGSYACSSADCYVFGTGTKVTVLGGGGGSEVQLVESGGGRVQPGGSLRLSCAASGFSLSSYAMNWVRQAPGKCLEWIGHINAGDIAYYATWAKGRFTISRDNSKNTVYLQMNSLRAEDTATYFCARGAGGFSTGPFKLWGQGTQVTVSSGGGGSGGGGSDVQMTQSPSSLSASVGDRVTITCRASENIYSGLAWYQQKPGKPPKLLIYRASTLASGVSSRFSGSGSGTDFTLTISSLQPEDFATYYCQGGYYSSSSTYIAFGTGTKVTVLGGGGGSGGGGSGGGGSGGGGSQSQVVESGGGRVQPGGSLRLSCAVSGFDLSSYAVSWVRQAPGKGLEWIGIIYPRANTYYASWAKGRFTISKDNSKNTVYLQMNSLRAEDTATYFCARDRYDSGAYLYTTYFNLWGQGTQVTVSS | – | – | – | – | – | 540000 | 0.0041 | 0.97 | 9.2e-05 | 95000 | 4.4 | 0.0045 | 0.0061 | – |
